Target: PsTOE3 (MBP-PsTOE3; PsAP2 in primer table) (Paeonia suffruticosa, UniProt A0A189CP77 1-510)
Test: EMSA; poly(dI-dC); DIG Gel Shift Kit (Roche) per manufacturer, probe 0.155 uM, poly(dI-dC); protein suspended in 20 mM Tris-HCl, 0.2 M NaCl, 1 mM EDTA, 10 mM beta-mercaptoethanol; pH and temperature not stated
Settings: protein: recombinant, purified on Ni-NTA, label: DIG, blunt

Sequence of PsTOE3 (MBP-PsTOE3; PsAP2 in primer table) (A0A189CP77 entry or part of it): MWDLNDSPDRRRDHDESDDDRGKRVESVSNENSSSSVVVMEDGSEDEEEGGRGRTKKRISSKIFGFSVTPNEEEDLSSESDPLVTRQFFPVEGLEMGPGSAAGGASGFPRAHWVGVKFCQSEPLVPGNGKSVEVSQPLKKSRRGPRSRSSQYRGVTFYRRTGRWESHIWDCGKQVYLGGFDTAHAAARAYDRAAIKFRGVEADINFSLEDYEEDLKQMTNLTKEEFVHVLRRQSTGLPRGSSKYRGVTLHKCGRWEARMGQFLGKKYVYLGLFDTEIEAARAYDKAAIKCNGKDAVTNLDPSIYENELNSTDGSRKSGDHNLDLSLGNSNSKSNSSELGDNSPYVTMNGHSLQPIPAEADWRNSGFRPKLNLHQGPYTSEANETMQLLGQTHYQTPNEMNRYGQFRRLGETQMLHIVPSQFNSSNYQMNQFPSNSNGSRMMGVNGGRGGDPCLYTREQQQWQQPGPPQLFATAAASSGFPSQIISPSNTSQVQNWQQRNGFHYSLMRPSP

| Binder | binding result (R oligo S209 is printed as the plain complement (3'-5' order) although the header says 5'-3') | binding result (R oligo S211 is printed as the plain complement (3'-5' order) although the header says 5'-3') |
| --- | --- | --- |
| C-repeat probe of PsEBB1 (4x ACCGAC) (dsDNA) DNA 1: AACCGACACCGACACCGACACCGAC DNA 2: GTCGGTGTCGGTGTCGGTGTCGGTT | binds |  |
| mutant C-repeat probe (4x AGCGAC) (dsDNA) DNA 1: AAGCGACAGCGACAGCGACAGCGAC DNA 2: GTCGCTGTCGCTGTCGCTGTCGCTT |  | no binding |

Reference: publication PMC10120838, “Dual functions of PsmiR172b-PsTOE3 module in dormancy release and flowering in tree peony (Paeonia suffruticosa)”
